From PMC11917135

Target: M53 protein (Streptococcus pyogenes) (UniProt P49054)
Test: SPR; screen: 200 nM Plg injected for 2100 s at 10 μL/min over immobilised Mrp or control M protein, 900 s dissociation; no Fg

UniProt P49054, sequence (P49054 30-384): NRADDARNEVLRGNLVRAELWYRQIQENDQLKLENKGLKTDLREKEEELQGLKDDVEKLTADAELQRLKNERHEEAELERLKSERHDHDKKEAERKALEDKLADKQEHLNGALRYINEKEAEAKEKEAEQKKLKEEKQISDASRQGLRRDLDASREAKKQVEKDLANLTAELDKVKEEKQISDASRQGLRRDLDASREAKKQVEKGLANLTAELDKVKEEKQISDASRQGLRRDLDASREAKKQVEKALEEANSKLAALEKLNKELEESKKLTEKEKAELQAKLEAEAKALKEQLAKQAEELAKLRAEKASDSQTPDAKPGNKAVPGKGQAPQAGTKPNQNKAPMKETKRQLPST

Substance: human Glu-plasminogen (natural protein)
- Kd: < 50 nM
